From patent US20030092613A1, “Alpha7 nicotinic receptor peptides as ligands for beta amyloid peptides” (priority 2000, published 2003)

Molecular target: β-amyloid1-42 (UniProt P05067)
Experiment: cell-based or functional assay

Binder: Ac-SERFYECCKEP-NH2 (also: cyclic, bridge not given here) [cyclic peptide (Ac)…-amide]
- ACh rel % Inh @ 100 µM: 81%
- Inh ACh rel IC50: 316 nM
